From patent US20250121104A1 (FUSION PHARMACEUTICALS, published 2025) come the findings set out here.

By Kd is commonly meant the constant that tells how readily two partners part at equilibrium. In general, koff refers to a measure of how fast the partners let go of each other. In general, kon refers to the second-order rate constant of association.

Test [1] concerns the target T1, cynomolgus monkey cMET (recombinant, soluble monomeric) (cynomolgus monkey, UniProt A0M8R7 25-932 (Papio anubis entry)).
T1 construct: also called cyno cMET
The experiment in a line: SPR (BIAcore T200), antibody captured on anti-human IgG, soluble monomeric antigen as analyte, 25 C, 1:1 fit. Here is the method: (§1) Mouse anti-human IgG was immobilized on a CM4 sensor chip with a final surface density of ˜2000 resonance units (RUs). A reference flow cell surface was also prepared on this sensor chip using identical immobilization protocol. Test and control article antibodies were prepared at 5-20 nM in instrument buffer (HBS-EP buffer; 0.01M HEPES, pH 7.4, 0.15M NaCl, 3 mM EDTA, and 0.005% P-20), along with 3-fold serial dilutions of purified EGFR (0.27-200 nM human, 0.4-900 nM cyno, and 4-1000 nM murine) or cMET proteins (0.27-66 nM human and 0.27-22 nM cyno) in instrument buffer. A sequential approach was utilized for kinetic measurements. Antibodies were first injected over the capture surface, at a flow rate of 10 μL/minute. Once the binding of the captured antibody stabilized, a single concentration of the analyte was injected over both capture and reference surfaces, at a flow rate of 75 μL/minute. The resulting binding response curves yielded the association phase data. Following the injection of analyte, the flow was then switched back to instrument buffer for 15 minutes to permit the collection of dissociation phase data, followed by a 1-minute pulse of 10 mM glycine, pH 1.5, to regenerate the antibody-captured surface on the chip. Binding responses against test and control article antibodies were recorded from duplicate injections of each concentration of analyte. In addition, several buffer injections were interspersed throughout the injection series. Select buffer injections were used along with the reference cell responses to correct the raw data sets for injection artifacts and/or nonspecific binding interactions, commonly referred to as “double referencing”. Corrected binding data were globally fit to a 1:1 binding model (Biacore T200 Evaluation software 2.0, GE Healthcare, Pittsburgh, PA).
(§2) Kinetic measurements to soluble monomeric forms of EGFR and cMET were performed using a BIACore instrument.
On the technique in general: SPR reads the build-up and loss of mass on a sensor chip optically.

Test [2] concerns the target T2, human cMET (recombinant, soluble monomeric) (human, UniProt P08581 25-932).
T2 construct: also called cMET antigen; His-tagged cMET antigen
Described as above. Here is the method: as §1, §2

Test [3] has as its target T3, human EGFR (recombinant, soluble monomeric) (human, UniProt P00533 25-645).
T3 construct: also called EGFR antigen
The description is as above. Here is the method: as §1, §2

For test [4], the target named is T4, cynomolgus monkey EGFR (recombinant, soluble monomeric) (cynomolgus monkey, UniProt P55245 25-645 (rhesus entry)).
T4 construct: also called cyno EGFR
The description is as above. Here is the method: as §1, §2

For a further test, the target named is T5, mouse EGFR (recombinant) (mouse, UniProt Q01279 25-647).
T5 construct: also called murine EGFR
Described as above. Here is the method: as §1, §2

In test [5] the target is T6, EGFR and cMET co-expressed on the surface of tumour cell lines (HCC827, HT29, H441, H1975) (UniProt P00533 25-1210; P08581 25-1390).
T6 construct: whole, on cells; Target of the bispecific molecules on cells that carry both receptors; the cell line of each value stands under assay; also called EGFR and c-MET expressing cell line; EGFR and/or cMET expressing cell lines
The experiment in a line: confocal fluorescence microscopy, AlexaFluor647-labelled antibody pre-bound to cells, T=0.

A further test concerns the target T7, Semaphorin 3a (UniProt Q14563 21-771, limits assumed).
T7 sequence (looked up): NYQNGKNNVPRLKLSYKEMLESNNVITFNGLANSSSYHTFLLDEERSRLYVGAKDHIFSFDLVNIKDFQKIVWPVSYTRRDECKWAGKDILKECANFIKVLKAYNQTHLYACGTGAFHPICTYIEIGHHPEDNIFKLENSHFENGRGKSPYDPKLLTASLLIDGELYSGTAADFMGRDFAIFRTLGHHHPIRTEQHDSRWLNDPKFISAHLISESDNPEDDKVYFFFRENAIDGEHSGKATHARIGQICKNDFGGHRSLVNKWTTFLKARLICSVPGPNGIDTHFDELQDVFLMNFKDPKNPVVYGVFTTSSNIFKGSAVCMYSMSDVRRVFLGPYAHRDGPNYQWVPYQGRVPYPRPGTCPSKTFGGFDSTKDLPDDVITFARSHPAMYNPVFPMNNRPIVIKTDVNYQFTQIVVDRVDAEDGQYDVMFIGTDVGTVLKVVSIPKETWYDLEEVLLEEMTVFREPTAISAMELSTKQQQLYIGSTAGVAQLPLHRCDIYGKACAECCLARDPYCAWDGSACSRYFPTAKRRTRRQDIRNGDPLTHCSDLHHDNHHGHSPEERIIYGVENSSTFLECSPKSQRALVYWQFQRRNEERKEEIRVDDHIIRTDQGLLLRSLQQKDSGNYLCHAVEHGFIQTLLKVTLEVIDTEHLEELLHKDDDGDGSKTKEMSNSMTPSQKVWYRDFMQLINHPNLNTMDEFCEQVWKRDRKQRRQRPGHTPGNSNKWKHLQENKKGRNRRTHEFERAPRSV
The experiment in a line: ELISA, antigen coated at 1 µg/mL, antibody titrated from 10 µg/mL. Here is the method:
Specificity for EGFR and cMET species paralogs and closely related family members was determined by ELISA. Briefly, antigen solutions were prepared in PBS at 1 μg/mL and 50 microliters was coated onto half area ELISA assay plates. Plates were washed and blocked with 1% BSA in PBS containing 0.005% Tween-20 (PBS-T) for one hour at room temperature. […] Wells were incubated with 50 microliters of the indicated primary antibodies diluted in PBS-T in a 1:3 dilution series, starting at 10 μg/mL and ending at 0.002 μg/mL, except for the HER4 binding mAb control, MAB1131, for which the series started at 1 μg/mL. The wells were washed 4 times in PBS-T, then 50 μl of goat anti-human Fab HRP-labeled secondary antibody, diluted 1:5000 in PBS-T, was added to each well and incubated for one hour at room temperature. […] 50 microliters of TMB stop solution was added to all wells and the absorbance was read at 450 nm on a SpectraMax M5 microplate reader. Data were analyzed in the SoftMax Pro 5 software and plotted using GraphPad Prism 7 graphing software.
To determine the species cross reactivity, ELISA assays were carried out as described above.
A general note: An ELISA detects its analyte on a solid surface through an enzyme-linked reagent.

T1 sequence (A0M8R7 25-932 S170N/I621T): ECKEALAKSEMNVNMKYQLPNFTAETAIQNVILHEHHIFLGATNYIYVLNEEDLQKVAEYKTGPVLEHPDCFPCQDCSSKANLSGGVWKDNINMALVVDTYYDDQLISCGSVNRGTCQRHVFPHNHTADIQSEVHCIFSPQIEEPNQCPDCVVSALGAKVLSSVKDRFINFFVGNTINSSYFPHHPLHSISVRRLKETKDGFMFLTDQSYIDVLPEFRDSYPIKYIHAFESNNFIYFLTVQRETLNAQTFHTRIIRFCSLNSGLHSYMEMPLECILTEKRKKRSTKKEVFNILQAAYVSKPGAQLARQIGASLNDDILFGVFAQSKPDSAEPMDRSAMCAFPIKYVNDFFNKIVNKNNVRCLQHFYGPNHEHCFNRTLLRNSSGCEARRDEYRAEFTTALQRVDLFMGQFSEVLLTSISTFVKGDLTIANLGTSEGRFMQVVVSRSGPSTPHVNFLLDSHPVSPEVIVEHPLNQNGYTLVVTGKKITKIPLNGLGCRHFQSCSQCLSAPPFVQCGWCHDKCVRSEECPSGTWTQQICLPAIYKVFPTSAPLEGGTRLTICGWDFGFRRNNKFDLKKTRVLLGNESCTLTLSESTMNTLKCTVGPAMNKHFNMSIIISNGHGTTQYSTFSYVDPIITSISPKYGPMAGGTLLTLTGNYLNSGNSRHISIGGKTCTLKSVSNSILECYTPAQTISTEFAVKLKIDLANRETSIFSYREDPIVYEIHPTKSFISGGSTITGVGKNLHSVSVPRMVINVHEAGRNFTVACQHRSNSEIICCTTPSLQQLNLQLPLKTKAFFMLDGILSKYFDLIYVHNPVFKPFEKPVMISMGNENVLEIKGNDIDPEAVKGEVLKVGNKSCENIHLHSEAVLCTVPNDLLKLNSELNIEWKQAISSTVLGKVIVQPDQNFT
T2 sequence (P08581 25-932): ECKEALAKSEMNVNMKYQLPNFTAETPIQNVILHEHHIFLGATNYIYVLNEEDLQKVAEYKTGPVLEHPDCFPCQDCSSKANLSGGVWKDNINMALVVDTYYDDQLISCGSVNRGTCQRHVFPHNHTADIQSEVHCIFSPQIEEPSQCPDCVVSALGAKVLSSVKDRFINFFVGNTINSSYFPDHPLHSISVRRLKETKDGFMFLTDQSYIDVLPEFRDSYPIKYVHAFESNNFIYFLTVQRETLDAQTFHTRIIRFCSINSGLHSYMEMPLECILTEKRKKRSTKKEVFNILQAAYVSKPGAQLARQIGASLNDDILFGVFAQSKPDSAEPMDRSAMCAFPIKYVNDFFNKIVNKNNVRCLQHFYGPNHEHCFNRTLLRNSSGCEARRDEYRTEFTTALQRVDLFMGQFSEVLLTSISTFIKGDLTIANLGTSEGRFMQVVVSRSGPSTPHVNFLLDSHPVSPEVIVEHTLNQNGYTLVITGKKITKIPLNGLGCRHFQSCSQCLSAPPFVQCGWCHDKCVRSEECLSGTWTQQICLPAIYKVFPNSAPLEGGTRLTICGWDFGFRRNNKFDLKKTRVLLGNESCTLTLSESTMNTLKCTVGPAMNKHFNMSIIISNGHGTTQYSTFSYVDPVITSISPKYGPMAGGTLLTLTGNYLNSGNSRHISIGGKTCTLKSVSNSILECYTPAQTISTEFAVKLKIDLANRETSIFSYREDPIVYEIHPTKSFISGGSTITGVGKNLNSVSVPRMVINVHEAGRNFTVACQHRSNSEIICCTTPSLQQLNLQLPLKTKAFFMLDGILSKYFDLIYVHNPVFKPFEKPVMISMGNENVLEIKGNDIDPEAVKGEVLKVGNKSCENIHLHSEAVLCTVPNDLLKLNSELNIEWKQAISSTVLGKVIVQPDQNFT

B1: RAA22/B09-57 DuetMab (bispecific antibody, V domains shown)
VH 1: QVQLVQSGAEVKKPGSSVKVSCKASGGTFSDNDFSWVRQAPGQGLEWMGAIVAVFRTETYAQKFQDRVKITADISTRTTYMELSSLRSEDTAVYYCARRLMSAISGPGAPLLMWGQGTLVTVSS
VL 1: QSALTQPRSVSGSPGQSVTISCTGTSSDVGGYNYVSWYQQHPGKAPKLMIYDVSKRPSGVPDRFSGSKSGNTASLTISGLQAEDEADYYCSSYTSSDTLEIFGGGTKLTVL
VH 2: QVQLVQSGAEVKKPGASVKVSCKASGYTFTDYYIHWVRQATGQGLEWMGWMNPNSGNTGYAQKFQGRVTMTRDTSISTAYMELSSLRSEDTAVYYCARGQGYTHSWGQGTMVTVSS
VL 2: DIQMTQSPSTLSASVGDRVTITCRASEGIYHWLAWYQQKPGKAPKLLIYKASSLASGVPSRFSGSGSGTEFTLTISSLQPDDFATYYCQQYSNYPPTFGGGTKLEIK
notes: RAA22 VH on Hole heavy chain (T366S, L368A, Y407V, Y349C) with lambda CL; cysteine insertion after S239; also called RAA22/B09 DuetMab; RAA22/B09 bispecific mAb
On to B1, for which the Kd in test [1] is 2.2 nM; in test [2], 2.2 nM; in test [3], 45 nM; in test [4] it was 197 nM; in the test with mouse EGFR (recombinant) it was 575 nM. For the same molecule, the koff in test [1] is 0.00212 s⁻¹; in test [2], 0.000986 s⁻¹; in test [3], 0.00201 s⁻¹; in test [4], 0.00548 s⁻¹; with mouse EGFR (recombinant), 0.0206 s⁻¹. The kon in test [1] turned out to be 974000 M⁻¹ s⁻¹; in test [2] it was 443000 M⁻¹ s⁻¹; in test [3], 44700 M⁻¹ s⁻¹; in test [4], 27800 M⁻¹ s⁻¹; with mouse EGFR (recombinant), 35400 M⁻¹ s⁻¹. Further, the “fold binding on HCC827 cells over H1975 cells” value in test [5] was 8.9 fold. Moreover, in the test with Semaphorin 3a, the binding result is given as “no binding (tested: 10 µg/mL)”.
